{
  "source": "patent US20040229797A1",
  "biological_target": "HA-tagged Filamin 1 (HA-Filamin 1)",
  "test": "cell-based or functional assay",
  "data": [
    {"substance": "S-FILIP (short form Filamin-interacting protein) (from UniProt Q8K4T4 248-965)", "values": [
      {"measurement": "relative amount of recombinant Filamin 1 and GFP", "value": 1.8}
    ]}
  ]
}
